Paper PMC3694306
Blank lines part the entries; values can stand above or below the substance they belong to.

Experiments:
[1] = molecular target: EssB^Δ N115C (cysteine-free template C48S, C108S, C171S), MTSSL spin-labelled (Geobacillus thermodenitrificans NG80-2); assay: SEC; detergent-solubilised membrane-bound protein; Superdex200 HR 30/100 GL, buffers with 0.02% DDM and 1 ug/ml DOPC
[2] = molecular target: EssB^Δ E273C (cysteine-free template C48S, C108S, C171S), MTSSL spin-labelled (Geobacillus thermodenitrificans NG80-2); assay: as above
[3] = molecular target: EssB-C^Δ (C-terminally truncated extracytosolic fragment of EssB, Ala241 to Gln397) (Geobacillus thermodenitrificans NG80-2); assay: SEC; soluble fragments; Superdex75 prep grade HR 16/60, buffer C (10 mM sodium phosphate pH 7.8, 20 mM NaCl, 0.5 mM TCEP), column calibrated with molecular mass standards
[4] = molecular target: EssB-C^Δ (C-terminally truncated extracytosolic fragment of EssB, Ala241 to Gln397) (Geobacillus thermodenitrificans NG80-2); assay: crystal structure; EssB-C^Δ, monoclinic C2, four molecules in the asymmetric unit, 3.0 M malonate pH 7.0, 10 mM ZnCl2, 2.4 Å; dimer made by crystallographic symmetry
[5] = molecular target: EssB (full-length, membrane-bound, Geobacillus thermodenitrificans NG80-2) (Geobacillus thermodenitrificans NG80-2); assay: SEC; detergent-solubilised membrane-bound protein; Superdex200 HR 30/100 GL, buffers with 0.02% DDM and 1 ug/ml DOPC
[6] = molecular target: EssB-N D54C (cysteine-free template C48S, C108S, C171S), before MTSSL labelling (Geobacillus thermodenitrificans NG80-2); assay: SEC; EssB-N cysteine mutants before and after MTSSL labelling (data not shown)
[7] = molecular target: EssB-C (C-terminal extracytosolic fragment of EssB, Ala241 to Lys428) (Geobacillus thermodenitrificans NG80-2); assay: SEC; soluble fragments; Superdex75 prep grade HR 16/60, buffer C (10 mM sodium phosphate pH 7.8, 20 mM NaCl, 0.5 mM TCEP), column calibrated with molecular mass standards
[8] = molecular target: EssB-C (C-terminal extracytosolic fragment of EssB, Ala241 to Lys428) (Geobacillus thermodenitrificans NG80-2); assay: crystal structure; EssB-C, tetragonal P4(3)2(1)2, two molecules in the asymmetric unit, 2.1 M malate pH 7.0, 3.2 Å; dimer made by crystallographic symmetry
[9] = molecular target: EssB-N (N-terminal, predicted cytoplasmic fragment of EssB, Ser2 to Asp214) (Geobacillus thermodenitrificans NG80-2); assay: native gel or EMSA; blue native PAGE, linear 4-16% gradient Native Bis-Tris gel, 3 ug purified EssB-N
[10] = molecular target: EssB-N (N-terminal, predicted cytoplasmic fragment of EssB, Ser2 to Asp214) (Geobacillus thermodenitrificans NG80-2); assay: SEC; EssB-N (2 mg) in 100 mM citrate pH 5.5, 300 mM NaCl, 0.5% TCEP, 10% glycerol, 30 min at room temperature, Superdex75 HR 30/100 GL
[11] = molecular target: EssB-N (N-terminal, predicted cytoplasmic fragment of EssB, Ser2 to Asp214) (Geobacillus thermodenitrificans NG80-2); assay: SEC; EssB-N (2 mg) in various test buffers with 0.5% TCEP and 10% glycerol (Tris-HCl pH 7.8 with 20 mM NaCl, with or without 5 mM EDTA; phosphate pH 7.8 or Bis-Tris pH 5.5 with 300 mM NaCl), 30 min at room temperature, Superdex75 HR 30/100 GL
[12] = molecular target: EssB^Δ S93C (cysteine-free template C48S, C108S, C171S), MTSSL spin-labelled (Geobacillus thermodenitrificans NG80-2); assay: SEC; detergent-solubilised membrane-bound protein; Superdex200 HR 30/100 GL, buffers with 0.02% DDM and 1 ug/ml DOPC
[13] = molecular target: EssB^Δ (membrane-bound EssB truncated by 31 C-terminal residues) (Geobacillus thermodenitrificans NG80-2); assay: as above
[14] = molecular target: EssB^Δ R86C (cysteine-free template C48S, C108S, C171S), MTSSL spin-labelled (Geobacillus thermodenitrificans NG80-2); assay: as above
[15] = molecular target: EssB^Δ E197C (cysteine-free template C48S, C108S, C171S), MTSSL spin-labelled (Geobacillus thermodenitrificans NG80-2); assay: as above
[16] = molecular target: EssB^Δ D54C (cysteine-free template C48S, C108S, C171S), MTSSL spin-labelled (Geobacillus thermodenitrificans NG80-2); assay: as above
[17] = molecular target: EssB-N D54C (cysteine-free template C48S, C108S, C171S), MTSSL spin-labelled (Geobacillus thermodenitrificans NG80-2); assay: SEC; EssB-N cysteine mutants before and after MTSSL labelling (data not shown)
[18] = molecular target: EssB^Δ E59C (cysteine-free template C48S, C108S, C171S), MTSSL spin-labelled (Geobacillus thermodenitrificans NG80-2); assay: SEC; detergent-solubilised membrane-bound protein; Superdex200 HR 30/100 GL, buffers with 0.02% DDM and 1 ug/ml DOPC
[19] = molecular target: EssB^Δ E139C (cysteine-free template C48S, C108S, C171S), MTSSL spin-labelled (Geobacillus thermodenitrificans NG80-2); assay: as above

stoichiometry N [1]: 2
Substance: EssB^Δ N115C (cysteine-free template C48S, C108S, C171S), MTSSL spin-labelled (domain or fragment)

stoichiometry N [5]: 2
Substance: EssB (full-length, membrane-bound, Geobacillus thermodenitrificans NG80-2) (natural protein)

stoichiometry N [9]: 2
percent monomeric [10]: > 10%
stoichiometry N [11]: 2
Substance: EssB-N (N-terminal, predicted cytoplasmic fragment of EssB, Ser2 to Asp214) (domain or fragment)

stoichiometry N [12]: 2
Substance: EssB^Δ S93C (cysteine-free template C48S, C108S, C171S), MTSSL spin-labelled (domain or fragment)

stoichiometry N [15]: 2
Substance: EssB^Δ E197C (cysteine-free template C48S, C108S, C171S), MTSSL spin-labelled (domain or fragment)

stoichiometry N [19]: 2
Substance: EssB^Δ E139C (cysteine-free template C48S, C108S, C171S), MTSSL spin-labelled (domain or fragment)

Second part, the substance before the results:

Substance: EssB^Δ E273C (cysteine-free template C48S, C108S, C171S), MTSSL spin-labelled (domain or fragment)
stoichiometry N [2]: 2

Substance: EssB-C^Δ (C-terminally truncated extracytosolic fragment of EssB, Ala241 to Gln397) (domain or fragment)
stoichiometry N [3]: 2
stoichiometry N [4]: 2

Substance: EssB-N D54C (cysteine-free template C48S, C108S, C171S), before MTSSL labelling (domain or fragment)
stoichiometry N [6]: 2

Substance: EssB-C (C-terminal extracytosolic fragment of EssB, Ala241 to Lys428) (domain or fragment)
stoichiometry N [7]: 2
stoichiometry N [8]: 2

Substance: EssB^Δ (membrane-bound EssB truncated by 31 C-terminal residues) (domain or fragment)
stoichiometry N [13]: 2

Substance: EssB^Δ R86C (cysteine-free template C48S, C108S, C171S), MTSSL spin-labelled (domain or fragment)
stoichiometry N [14]: 2

Substance: EssB^Δ D54C (cysteine-free template C48S, C108S, C171S), MTSSL spin-labelled (domain or fragment)
stoichiometry N [16]: 2

Substance: EssB-N D54C (cysteine-free template C48S, C108S, C171S), MTSSL spin-labelled (domain or fragment)
stoichiometry N [17]: 2

Substance: EssB^Δ E59C (cysteine-free template C48S, C108S, C171S), MTSSL spin-labelled (domain or fragment)
stoichiometry N [18]: 2
